Laboratory results: US7238663B2, “Pre-mixes of GLP-1 and basal insulin” (Eli Lilly and Company, priority 2001, dated 2007)
“And” between values parts separate entries of the source, which are not always exact repeats. Equal values may be shown once.

molecular target: T1, human GLP-1 receptor (Homo sapiens, UniProt P43220); test: GLP-1 receptor activation (in vitro potency, CRE-BLAM fluorescence assay); assay type: cell-based; details: relative in vitro potency from EC50, HEK-293 Aurora CRE-BLAM cells; Val^8-GLP-1(7-37)OH control = 1
T1 construct: expressed in transfected cells; host or cells: HEK-293 Aurora CRE-BLAM cells
Source text: These HEK-293 cells have stably integrated a DNA vector having a cAmp response element (CRE) driving expression of the β-lactamase (BLAM) gene. […] The assay is further described in Zlokarnik, et al., (1998) Science 279:84-88 (See also Example 1).

T1 sequence (P43220 24-463): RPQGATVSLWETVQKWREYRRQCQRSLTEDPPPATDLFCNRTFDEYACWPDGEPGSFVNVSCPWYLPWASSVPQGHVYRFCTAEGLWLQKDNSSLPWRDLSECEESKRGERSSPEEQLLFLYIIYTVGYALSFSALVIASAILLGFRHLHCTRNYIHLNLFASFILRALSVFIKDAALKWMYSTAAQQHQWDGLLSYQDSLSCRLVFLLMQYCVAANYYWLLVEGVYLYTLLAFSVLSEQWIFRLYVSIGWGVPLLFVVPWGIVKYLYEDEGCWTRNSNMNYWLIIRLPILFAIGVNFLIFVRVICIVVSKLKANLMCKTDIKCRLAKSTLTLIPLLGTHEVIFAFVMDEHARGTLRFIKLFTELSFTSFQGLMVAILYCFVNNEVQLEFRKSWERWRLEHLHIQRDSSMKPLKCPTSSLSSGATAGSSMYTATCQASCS

Row | GLP-1 receptor activation relative to Val^8-GLP-1(7-37)OH | Substance
1 | 5.1 and 5.9 | Val^8-Tyr^18-Glu^22-GLP-1(7-37)OH (HVEGTFTSDVSYYLEEQAAKEFIAWLVKGRG)
2 | 4.7 and 2.9 | Val^8-Glu^22-Val^25-GLP-1(7-37)OH (HVEGTFTSDVSSYLEEQAVKEFIAWLVKGRG)
3 | 2.4 and 1.9 | Val^8-Cys^16-Lys^26-Arg^34-GLP-1(7-37)OH
4 | 4.2 | Val^8-Cys^16-Lys^26-GLP-1(7-37)OH
5 | 1.1 | Val^8-Val^16-GLP-1(7-37)OH
6 | 4.9 and 5.8 and 6.7 | Val^8-Glu^22-Val^25-Ile^33-GLP-1(7-37)OH (HVEGTFTSDVSSYLEEQAVKEFIAWLIKGRG)
7 | 3.6 and 3.8 | Val^8-Tyr^16-Glu^22-GLP-1(7-37)OH (HVEGTFTSDYSSYLEEQAAKEFIAWLVKGRG)
8 | 4.7 and 3.8 and 3.4 | Val^8-Glu^22-Ile^33-GLP-1(7-37)OH (HVEGTFTSDVSSYLEEQAAKEFIAWLIKGRG)
9 | 4.9 and 4.6 | Val^8-Trp^16-Glu^22-GLP-1(7-37)OH (HVEGTFTSDWSSYLEEQAAKEFIAWLVKGRG)

system: not listed separately; test: GLP aggregation assay (turbidity at 350 nm); assay type: physicochemical; details: compared to GLP-1(7-37)OH or Val^8-GLP-1(7-37)OH
Experimental: GLP peptides can be analyzed with respect to their potential to aggregate in solution.
In general, peptides in solution are stirred at elevated temperature in a suitable buffer while recording turbidity at 350 nm as a function of time. Time to the onset of aggregation is measured to quantify the potential of a given GLP molecule to aggregate under these stressed conditions.
A GLP-1 compound is first dissolved under alkaline conditions (pH 10.5) for 30 minutes to dissolve any pre-aggregated material. The solution is then adjusted to pH 7.4 and filtered. Specifically, 4 mg of a lyophilized GLP-1 compound is dissolved in 3 ml of 10 mM phosphate/10 mM citrate. The pH is adjusted to 10.0-10.5 and held for 30 minutes. The solution is adjusted with HCl to pH 7.4 and filtered through a suitable filter, for example a Millex GV syringe filter (Millipore Corporation, Bedford, Mass.). This solution is then diluted to a final sample containing 0.3 mg/mL protein in 10 mM citrate, 10 mM phosphate, 150 mM NaCl, and adjusted to pH 7.4 to 7.5. The sample is incubated at 37° C. in a quartz cuvette. Every five minutes the turbidity of the solution is measured at 350 nm on an AVIV Model 14DS UV-VIS spectrophotometer (Lakewood, N.J.). For 30 seconds prior to and during the measurement the solution is stirred using a magnetic stir bar from Stama Cells, Inc. (Atascadero, Calif.). An increase in OD at 350 nm indicates aggregation of the GLP-peptide. The time to aggregation is approximated by the intersection of linear fits to the pre-growth and growth phase according to method of Drake(Arvinte T, Cudd A, and Drake A F.(1993) J. Bio. Chem. 268, 6415-6422).
The cuvette is cleaned between experiments with a caustic soap solution (e.g., Contrad-70).
The results for a number of GLP-1 compounds are reported in Table 8 as the time in hours required for the compound to aggregate.

Row | Substance | propensity to aggregate in solution
10 | Val^8-Glu^30-GLP-1(7-37)OH (HVEGTFTSDVSSYLEGQAAKEFIEWLVKGRG) | markedly decreased propensity to aggregate
11 | Val^8-His^37-GLP-1(7-37)OH (HVEGTFTSDVSSYLEGQAAKEFIAWLVKGRH) | markedly decreased propensity to aggregate
12 | Val^8-Glu^22-GLP-1(7-37)OH (HVEGTFTSDVSSYLEEQAAKEFIAWLVKGRG) | markedly decreased propensity to aggregate

system: not listed separately; test: GLP-1 compound/soluble basal insulin mixtures: clarity and final concentrations by HPLC; assay type: physicochemical; details: 2.1 mg in 1 ml 0.01 N HCl, pH 11.3 then adjusted to 4.0
Experimental: Exendin-4 (160 μg) was dissolved in 100 μL of commercial Lantus® insulin ([…], 3.6378 mg/mL). […] The solution was stored at 5° C. […] The pH was 4.0 Final concentrations of Exendin-4 and Lantus® were determined by reverse phase HPLC to be 0.9 mg/mL Exendin-4 and 3.5 mg/mL Lantus®. Based on known concentrations of excipients in the commercial formulation of Lantus®, the final concentrations of excipients in the mixture were as follows: 2.7 mg/mL m-cresol, 30 μg/mL zinc, and 17 mg/ml glycerol.
Exendin-4 (290 μg) was dissolved in 100 μL of commercial Lantus® insulin U100, 3.6378 mg/mL). […] The pH of the solution was adjusted to 4.0 with NaOH. Final concentrations of Exendin-4 and Lantus® were determined by reverse phase HPLC to be 1.6 mg/mL Exendin-4 and 3.5 mg/mL Lantus®. […]
Exendin-4 (529 μg) was dissolved in 500 μL of commercial Lantus® insulin (U100, 3.6378 mg/mL). […] Final concentrations of Exendin-4 and Lantus® were calculated to be 1 mg/mL Exendin-4 and 3.5 mg/mL Lantus®. […]
A stock solution of Val^8-Glu^22-GLP-1(7-37)OH was prepared by dissolving 2.1 mg of Val^8-Glu^22-GLP-1(7-37)OH in 1 ml of 0.01 N HCl. […] Final concentrations of Val^8-Glu^22-GLP-1(7-37)OH and Lantus® were determined by reverse phase HPLC to be 0.5 mg/mL Val^8-Glu^22-GLP-1(7-37)OH and 2.4 mg/mL Lantus®. […]

Row | Substance | appearance of stock solution
13 | Val^8-Glu^22-GLP-1(7-37)OH (HVEGTFTSDVSSYLEEQAAKEFIAWLVKGRG) | remained clear

same assay, conditions: 4.8 mg in 1.5 ml Stock solution A (glycerin, meta-cresol, zinc), pH 11 then adjusted to 4.0

Row | Substance | appearance of stock solution
14 | Val^8-Glu^22-GLP-1(7-37)OH (HVEGTFTSDVSSYLEEQAAKEFIAWLVKGRG) | remained clear
